The values that follow come from US20110229475A1 (GlaxoSmithKline, published 2011).

The EC50 (read off the curve) is the concentration needed to bring the measured effect to its halfway point. Lower therefore signals higher potency in that assay.

The target in the assay is T1, human IL-8 (human, UniProt P10145 28-99, limits assumed).
T1 construct: also called hIL-8; hIL8
As to the kind of experiment: TRFIA, chemokine coated on plate, biotinylated anti-mouse IgG and streptavidin-europium detection.

Method: Briefly, each antigen (human IL-8, Gro-alpha, Gro-beta, Gro-gamma, GCP-2, and ENA-78, and hIL-18 when used as negative control) is individually coated onto a 96-well immunofluorescent plate. The plates are then washed and blocked with a commercially available blocking solution. Blocking solution is emptied and samples containing the mAb are added into each well and incubated for 40 to 60 minutes (this allows the mAb to bind to the target chemokines). The plates are then washed again and a detection Ab is added to each well. […] The detection antibody is conjugated to either europium or biotin. Following another round of washing, to remove unbound detection Ab, a solution of streptavidin-europium was added to biotin detected assays. Streptavidin-europium binds to the biotin allowing for detection. After a final wash to remove unbound streptavidin-europium, or in the case of the humanized MAb assay after the europium conjugate secondary is washed, each well is filled with a chelating detergent solution to activate the europium producing fluorescence. The greater the fluorescence recorded is directly proportionate to the amount of detection Ab present in the well which is directly linked and proportionate to the amount of the chemokine binding mAb.

B1: mouse monoclonal antibody 656.35 (antibody, IgG2a, V domains shown)
VH: QVQLQQSGAELVRPGTSVTISCKASGYTFTNYWIVWVKQRPGHGLEWIGDLYSGGGYTFYSENFKGKATLTADTSSSTAYMHLISLTSEDSAVYFCARSGYDRTWFAHWGQGSLVTVSA
VL: DIKMTQSPSSMSASLGERVTITCQASQDIESYLSWYQQKPWKSPKTLIYYATRLADGVPSRFSGSGSGQDYSLTISSLESDDTATYYCLQHGESPPTFGAGTKLELKR
notes: Murine hybridoma antibody; also called 2x656.35
Consider B1, for which the half-maximal effective concentration (EC50 (read off the curve)) is around 40 ng/mL.
